The source of these data is article PMC4359366, “Lis1 regulates dynein by sterically blocking its mechanochemical cycle” (eLife, 2014).

In assay [1] the target is GST-dynein_(331kDa) (S. cerevisiae). Kind of assay: SEC; 400–800 nM dynein and 475–800 nM Lis1 mixed for 10 min at 4°C; Superose 6 PC 3.2/30; 50 mM Tris–HCl pH 8.0, 150 mM potassium acetate, 2 mM magnesium acetate, 1 mM EGTA, 1 mM DTT; fractions on SDS-PAGE with SYPRO Red, bands quantified in ImageJ.
Assay [2] concerns the target monomeric dynein motor domain, dynein_(331kDa) without tags on the linker (S. cerevisiae). Kind of assay: cryo-EM structure; cryo-negative stain EM, single-particle 3D reconstruction; monomeric dynein (80–120 nM) pre-incubated for 10 min with Lis1 dimer at a 1.5-fold excess (120–180 nM); no nucleotide (apyrase 0.14 U/ml, 15 min); 2% uranyl formate.
Assay [3] concerns the target T1, short linker dynein, DYN1_(314kDa), without GFP (S. cerevisiae, UniProt P36022 1365-4092).
T1 construct: ZZ tag probably cut off by Tev; also called short linker construct
The description is as above. The note with it: both partners purified.

Assay [4] has as its target T2, short linker dynein, GFP-3xHA-DYN1_(314kDa)-gs-DHA, monomeric (S. cerevisiae, UniProt P36022 1365-4092).
T2 construct: ZZ tag probably cut off by Tev; also called monomeric short linker dynein; short linker construct; not shown: GFP, N-terminal, kept; 3xHA, N-terminal, kept
Kind of assay: SEC; 400–800 nM dynein and 475–800 nM Lis1 mixed for 10 min at 4°C; Superose 6 PC 3.2/30; 50 mM Tris–HCl pH 8.0, 150 mM potassium acetate, 2 mM magnesium acetate, 1 mM EGTA, 1 mM DTT; fractions on SDS-PAGE with SYPRO Red, bands quantified in ImageJ. The note with it: both partners purified.

The target in assay [5] is T3, short linker dynein DYN1_(314kDa) K3438E, R3445E, F3446D (AAA5 linker-docking mutant), monomeric (S. cerevisiae, UniProt P36022 1365-4092, K3438E | R3445E | F3446D).
T3 construct: Cytoplasmic dynein heavy chain (DYN1), S. cerevisiae, 314 kDa motor construct DYN1_(314kDa) (linker truncated at residue 1365) with the AAA5 mutations; also called short linker dynein with AAA5 mutations; GFP-3xHA-DYN1_(314kDa)^K3438E,R3445E,F3446D-gs-DHA
The description is as above. The note with it: both partners purified.

T1 sequence (P36022 1365-4092): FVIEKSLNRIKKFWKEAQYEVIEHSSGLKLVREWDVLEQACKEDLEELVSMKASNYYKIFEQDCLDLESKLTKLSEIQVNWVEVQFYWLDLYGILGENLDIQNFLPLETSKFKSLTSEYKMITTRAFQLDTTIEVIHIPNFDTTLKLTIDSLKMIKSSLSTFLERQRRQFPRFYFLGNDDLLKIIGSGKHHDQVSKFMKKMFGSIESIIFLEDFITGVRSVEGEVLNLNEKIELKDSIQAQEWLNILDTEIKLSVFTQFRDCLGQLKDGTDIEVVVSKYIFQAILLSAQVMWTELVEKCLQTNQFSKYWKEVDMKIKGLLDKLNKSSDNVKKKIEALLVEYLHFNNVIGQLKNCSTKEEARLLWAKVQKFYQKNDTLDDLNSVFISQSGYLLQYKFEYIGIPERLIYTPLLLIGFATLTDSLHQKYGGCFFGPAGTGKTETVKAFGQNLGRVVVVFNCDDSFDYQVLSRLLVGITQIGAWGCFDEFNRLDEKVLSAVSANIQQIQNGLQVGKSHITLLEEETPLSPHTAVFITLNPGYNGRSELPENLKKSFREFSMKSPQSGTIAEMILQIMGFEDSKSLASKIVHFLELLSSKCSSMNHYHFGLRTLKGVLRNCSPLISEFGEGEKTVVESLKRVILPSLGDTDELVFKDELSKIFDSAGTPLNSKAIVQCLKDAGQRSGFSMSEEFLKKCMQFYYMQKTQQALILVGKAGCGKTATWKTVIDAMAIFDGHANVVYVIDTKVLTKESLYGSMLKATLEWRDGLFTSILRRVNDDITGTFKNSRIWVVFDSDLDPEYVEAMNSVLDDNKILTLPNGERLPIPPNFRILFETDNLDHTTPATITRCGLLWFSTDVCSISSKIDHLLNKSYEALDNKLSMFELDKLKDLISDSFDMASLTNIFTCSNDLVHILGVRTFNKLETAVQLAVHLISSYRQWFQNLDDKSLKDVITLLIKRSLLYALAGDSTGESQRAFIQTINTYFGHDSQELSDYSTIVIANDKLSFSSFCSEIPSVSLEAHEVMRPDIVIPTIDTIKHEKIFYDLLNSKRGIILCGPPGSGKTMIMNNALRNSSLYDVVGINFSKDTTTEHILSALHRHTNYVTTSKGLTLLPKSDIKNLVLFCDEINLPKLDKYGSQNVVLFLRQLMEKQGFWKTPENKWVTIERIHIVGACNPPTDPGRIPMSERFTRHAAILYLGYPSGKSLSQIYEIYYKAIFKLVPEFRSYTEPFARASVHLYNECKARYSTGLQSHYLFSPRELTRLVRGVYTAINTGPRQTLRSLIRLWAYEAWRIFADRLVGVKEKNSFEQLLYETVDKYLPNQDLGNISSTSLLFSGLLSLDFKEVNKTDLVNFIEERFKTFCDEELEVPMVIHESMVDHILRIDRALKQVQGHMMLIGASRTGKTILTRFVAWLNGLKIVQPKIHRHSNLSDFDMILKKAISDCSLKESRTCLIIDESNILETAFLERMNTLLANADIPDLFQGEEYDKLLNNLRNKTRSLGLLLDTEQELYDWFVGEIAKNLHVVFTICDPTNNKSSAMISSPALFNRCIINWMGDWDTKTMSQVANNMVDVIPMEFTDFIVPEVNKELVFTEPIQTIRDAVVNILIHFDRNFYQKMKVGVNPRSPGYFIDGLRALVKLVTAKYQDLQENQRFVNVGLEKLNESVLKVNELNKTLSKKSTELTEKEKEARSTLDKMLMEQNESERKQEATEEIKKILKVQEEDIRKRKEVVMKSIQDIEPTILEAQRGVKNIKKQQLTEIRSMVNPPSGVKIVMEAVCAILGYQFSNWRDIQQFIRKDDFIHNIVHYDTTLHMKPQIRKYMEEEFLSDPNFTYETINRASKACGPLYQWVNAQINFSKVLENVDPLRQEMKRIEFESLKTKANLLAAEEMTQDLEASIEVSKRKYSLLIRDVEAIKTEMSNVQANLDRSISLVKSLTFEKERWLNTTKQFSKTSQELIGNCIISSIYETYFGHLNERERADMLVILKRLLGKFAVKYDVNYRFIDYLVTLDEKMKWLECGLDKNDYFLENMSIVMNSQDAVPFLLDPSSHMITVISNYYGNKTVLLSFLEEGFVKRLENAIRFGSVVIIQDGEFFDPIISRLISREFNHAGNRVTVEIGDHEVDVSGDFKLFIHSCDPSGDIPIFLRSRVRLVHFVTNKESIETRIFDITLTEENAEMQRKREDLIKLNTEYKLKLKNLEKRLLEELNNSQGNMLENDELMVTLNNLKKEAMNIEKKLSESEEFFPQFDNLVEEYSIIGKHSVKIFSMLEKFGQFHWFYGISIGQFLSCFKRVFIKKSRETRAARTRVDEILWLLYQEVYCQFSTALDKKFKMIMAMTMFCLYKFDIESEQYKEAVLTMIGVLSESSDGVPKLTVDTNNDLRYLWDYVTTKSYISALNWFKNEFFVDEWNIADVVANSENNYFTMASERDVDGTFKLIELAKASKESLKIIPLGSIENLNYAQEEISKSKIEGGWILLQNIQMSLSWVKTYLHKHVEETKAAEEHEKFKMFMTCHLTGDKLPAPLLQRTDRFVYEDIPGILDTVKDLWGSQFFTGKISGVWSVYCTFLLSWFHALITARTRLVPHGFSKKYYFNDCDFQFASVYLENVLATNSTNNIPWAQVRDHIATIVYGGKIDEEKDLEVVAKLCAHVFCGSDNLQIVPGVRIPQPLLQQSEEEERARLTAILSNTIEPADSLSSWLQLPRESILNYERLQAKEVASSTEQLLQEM
T2 sequence (P36022 1365-4092): as above
T3 sequence (P36022 1365-4092 K3438E/R3445E/F3446D): as the sequence (P36022 1365-4092) above, with K2074E, R2081E, F2082D counted along it

B1: Lis1^R301A (natural protein)
chain: MTNWQQQLPLTDTQKNELDKSVLRYLNWNYKQTVRHEHAQDYESVRHAIVTLSGFLLQESVDRQEFISNNDTSNESMVDIDELLLPKKWNSIVRLQKKIIELEQNTETLVSQIKDLNTQVSELAQFKPTTSNGTSAHNVLKWIPRNLPSCLINVESSVTSVKLHPNLPIVFVATDHGKLYAFDLFNYTIPLASLQSHTKAITSMDVLFTNYTNSSKKNYLVIVTASKDLQIHVFKWVSEECKFQQIRSLLGHEHIVSAVKIWQKNNDVHIASCSRDQTVKIWDFHNGWSLKTFQPHSQWVASIDVLGDYIISGSHDTTLRLTHWPSGNGLSVGTGHEFPIEKVKFIHFIEDSPEIRFRTPSTDRYKNWGMQYCVSASRDRTIKIWEIPLPTLMAHRAPIPNPTDSNFRCVLTLKGHLSWVRDISIRGQYLFSCADDKSVRCWDLNTGQCLHVWEKLHTGFVNCLDLDVDFDSNVTPRQMMVTGGLDCKSNVFMR
Consider B1, for which, in assay [1], the GST-dynein (331kDa) share of the dynein:Lis1 band ratio in the SEC complex peak stood at 0.88 and the Lis1 share of the dynein:Lis1 band ratio in the SEC complex peak is 0.12.

B2: Lis1 (Pac1), wild type, dimer (natural protein, S. cerevisiae, UniProt P39946 1-494, looked up)
chain: MTNWQQQLPLTDTQKNELDKSVLRYLNWNYKQTVRHEHAQDYESVRHAIVTLSGFLLQESVDRQEFISNNDTSNESMVDIDELLLPKKWNSIVRLQKKIIELEQNTETLVSQIKDLNTQVSELAQFKPTTSNGTSAHNVLKWIPRNLPSCLINVESSVTSVKLHPNLPIVFVATDHGKLYAFDLFNYTIPLASLQSHTKAITSMDVLFTNYTNSSKKNYLVIVTASKDLQIHVFKWVSEECKFQQIRSLLGHEHIVSAVKIWQKNNDVHIASCSRDQTVKIWDFHNGWSLKTFQPHSQWVRSIDVLGDYIISGSHDTTLRLTHWPSGNGLSVGTGHEFPIEKVKFIHFIEDSPEIRFRTPSTDRYKNWGMQYCVSASRDRTIKIWEIPLPTLMAHRAPIPNPTDSNFRCVLTLKGHLSWVRDISIRGQYLFSCADDKSVRCWDLNTGQCLHVWEKLHTGFVNCLDLDVDFDSNVTPRQMMVTGGLDCKSNVFMR
notes: Lis1 ortholog Pac1 (PAC1), S. cerevisiae; genomic PAC1 copy with ZZ-Tev in front; A Tev site follows the ZZ tag and a TEV buffer is named for the Lis1 purification, so the ZZ tag was probably cut off; also called WT Lis1; wild-type Lis1
Molecule B2 came in with a stoichiometry N (Lis1 propeller per dynein motor domain) in assay [2] of 1. Moreover, the GST-dynein (331kDa) share of the dynein:Lis1 band ratio in the SEC complex peak in assay [1] is 0.82. Further, the Lis1 share of the dynein:Lis1 band ratio in the SEC complex peak in assay [1] was 0.18. The binding result in assay [3], in assay [4] and in assay [5] was “binds” each time.

B3: Lis1^K437A (natural protein)
chain: MTNWQQQLPLTDTQKNELDKSVLRYLNWNYKQTVRHEHAQDYESVRHAIVTLSGFLLQESVDRQEFISNNDTSNESMVDIDELLLPKKWNSIVRLQKKIIELEQNTETLVSQIKDLNTQVSELAQFKPTTSNGTSAHNVLKWIPRNLPSCLINVESSVTSVKLHPNLPIVFVATDHGKLYAFDLFNYTIPLASLQSHTKAITSMDVLFTNYTNSSKKNYLVIVTASKDLQIHVFKWVSEECKFQQIRSLLGHEHIVSAVKIWQKNNDVHIASCSRDQTVKIWDFHNGWSLKTFQPHSQWVRSIDVLGDYIISGSHDTTLRLTHWPSGNGLSVGTGHEFPIEKVKFIHFIEDSPEIRFRTPSTDRYKNWGMQYCVSASRDRTIKIWEIPLPTLMAHRAPIPNPTDSNFRCVLTLKGHLSWVRDISIRGQYLFSCADDASVRCWDLNTGQCLHVWEKLHTGFVNCLDLDVDFDSNVTPRQMMVTGGLDCKSNVFMR
As for B3, in assay [1], the GST-dynein (331kDa) share of the dynein:Lis1 band ratio in the SEC complex peak is 0.85 and the Lis1 share of the dynein:Lis1 band ratio in the SEC complex peak worked out at 0.15.

B4: Lis1^R275A (natural protein)
chain: MTNWQQQLPLTDTQKNELDKSVLRYLNWNYKQTVRHEHAQDYESVRHAIVTLSGFLLQESVDRQEFISNNDTSNESMVDIDELLLPKKWNSIVRLQKKIIELEQNTETLVSQIKDLNTQVSELAQFKPTTSNGTSAHNVLKWIPRNLPSCLINVESSVTSVKLHPNLPIVFVATDHGKLYAFDLFNYTIPLASLQSHTKAITSMDVLFTNYTNSSKKNYLVIVTASKDLQIHVFKWVSEECKFQQIRSLLGHEHIVSAVKIWQKNNDVHIASCSADQTVKIWDFHNGWSLKTFQPHSQWVRSIDVLGDYIISGSHDTTLRLTHWPSGNGLSVGTGHEFPIEKVKFIHFIEDSPEIRFRTPSTDRYKNWGMQYCVSASRDRTIKIWEIPLPTLMAHRAPIPNPTDSNFRCVLTLKGHLSWVRDISIRGQYLFSCADDKSVRCWDLNTGQCLHVWEKLHTGFVNCLDLDVDFDSNVTPRQMMVTGGLDCKSNVFMR
On to B4, for which, in assay [1], the GST-dynein (331kDa) share of the dynein:Lis1 band ratio in the SEC complex peak was 0.85 and the Lis1 share of the dynein:Lis1 band ratio in the SEC complex peak stood at 0.15.
